From PMC10539340, “A common human MLKL polymorphism confers resistance to negative regulation by phosphorylation” (Nature Communications, 2023)
Positions count from the first letter of the chain named. Names may count otherwise.

Target: the molecule itself
Assay: SEC; HiLoad 16/600 Superdex 200 pg column after glutathione agarose; fractions at elution volume 55-63 ml taken as tetramers and pooled

B1: Recombinant full-length human MLKL (residue 2-471), wild type (natural protein, UniProt Q8NB16 2-471, looked up)
chain: ENLKHIITLGQVIHKRCEEMKYCKKQCRRLGHRVLGLIKPLEMLQDQGKRSVPSEKLTTAMNRFKAALEEANGEIEKFSNRSNICRFLTASQDKILFKDVNRKLSDVWKELSLLLQVEQRMPVSPISQGASWAQEDQQDADEDRRAFQMLRRDNEKIEASLRRLEINMKEIKETLRQYLPPKCMQEIPQEQIKEIKKEQLSGSPWILLRENEVSTLYKGEYHRAPVAIKVFKKLQAGSIAIVRQTFNKEIKTMKKFESPNILRIFGICIDETVTPPQFSIVMEYCELGTLRELLDREKDLTLGKRMVLVLGAARGLYRLHHSEAPELHGKIRSSNFLVTQGYQVKLAGFELRKTQTSMSLGTTREKTDRVKSTAYLSPQELEDVFYQYDVKSEIYSFGIVLWEIATGDIPFQGCNSEKIRKLVAVKRQQEPLGEDCPSELREIIDECRAHDPSVRPSVDEILKKLSTFSK
notes: Bacmids were made from pFastBac Htb vectors; also called MLKL^WT; hMLKL; source: Sf21 insect cells, purified (glutathione agarose, size-exclusion chromatography)
  stoichiometry N: 4

B2: Recombinant full-length human MLKL (residue 2-471) S83D (natural protein, UniProt Q8NB16 2-471, looked up)
chain: B1 chain with S82D
notes: human MLKL, residues 2-471, with the phosphomimetic S83D; Bacmids were made from pFastBac Htb vectors; also called MLKL^S83D; source: Sf21 insect cells, purified (glutathione agarose, size-exclusion chromatography)
  stoichiometry N: 4

B3: Recombinant full-length human MLKL (residue 2-471) S132P (natural protein, UniProt Q8NB16 2-471, looked up)
chain: B1 chain with S131P
notes: human MLKL, residues 2-471, with the natural polymorphism p.Ser132Pro; Bacmids were made from pFastBac Htb vectors; also called MLKL^S132P; p.Ser132Pro; source: Sf21 insect cells, purified (glutathione agarose, size-exclusion chromatography)
  stoichiometry N: 4

B4: Recombinant full-length human MLKL (residue 2-471) S83D,S132P (natural protein, UniProt Q8NB16 2-471, looked up)
chain: B1 chain with S82D, S131P
notes: human MLKL, residues 2-471, compound mutant of the phosphomimetic S83D and the polymorphism S132P; Bacmids were made from pFastBac Htb vectors; also called MLKL^(S83D, S132P); MLKL^S83D,S132P; source: Sf21 insect cells, purified (glutathione agarose, size-exclusion chromatography)
  stoichiometry N: 4
